Laboratory results from the supplement of paper PMC11246515.
± gives the standard deviation of the averaged measurements.

Assay: total protein half-life in vivo (active degradation + dilution); higher = more stable protein
[1] = E. coli NCM3722 delta-clpP delta-lon delta-hslV, growth: N-lim chemostat, doubling time 6 h
[2] = E. coli NCM3722 delta-clpP, growth: N-lim chemostat, doubling time 6 h
[3] = E. coli NCM3722 delta-hslV, growth: N-lim chemostat, doubling time 6 h
[4] = E. coli NCM3722 delta-lon, growth: N-lim chemostat, doubling time 6 h
[5] = E. coli NCM3722 delta-smpB, growth: N-lim chemostat, doubling time 6 h
[6] = wild type E. coli NCM3722, growth: C-lim chemostat, doubling time 3 h
[7] = wild type E. coli NCM3722, growth: C-lim chemostat, doubling time 6 h
[8] = wild type E. coli NCM3722, growth: C-lim chemostat, doubling time 12 h
[9] = wild type E. coli NCM3722, growth: N-lim chemostat, doubling time 6 h
[10] = wild type E. coli NCM3722, growth: N-lim chemostat, doubling time 12 h
[11] = wild type E. coli NCM3722, growth: P-lim chemostat, doubling time 6 h
[12] = wild type E. coli NCM3722, growth: P-lim chemostat, doubling time 12 h

| Sequence | total protein half-life in vivo [1] [h] | total protein half-life in vivo [2] [h] | total protein half-life in vivo [3] [h] | total protein half-life in vivo [4] [h] | total protein half-life in vivo [5] [h] | total protein half-life in vivo [6] [h] | total protein half-life in vivo [7] [h] | total protein half-life in vivo [8] [h] | total protein half-life in vivo [9] [h] | total protein half-life in vivo [10] [h] | total protein half-life in vivo [11] [h] | total protein half-life in vivo [12] [h] |
| --- | --- | --- | --- | --- | --- | --- | --- | --- | --- | --- | --- | --- |
| MSWQEKINAALDARRAADALRRRYPVAQGAGRWLVADDRQYLNFSSNDYLGLSHHPQIIRAWQQGAEQFGIGSGGSGHVSGYSVVHQALEEELAEWLGYSRALLFISGFAANQAVIAAMMAKEDRIAADRLSHASLLEAASLSPSQLRRFAHNDVTHLARLLASPCPGQQMVVTEGVFSMDGDSAPLAEIQQVTQQHNGWLMVDDAHGTGVIGEQGRGSCWLQKVKPELLVVTFGKGFGVSGAAVLCSSTVADYLLQFARHLIYSTSMPPAQAQALRASLAVIRSDEGDARREKLAALITRFRAGVQDLPFTLADSCSAIQPLIVGDNSRALQLAEKLRQQGCWVTAIRPPTVPAGTARLRLTLTAAHEMQDIDRLLEVLHGNG | 4.06 ± 0.98 | 3.57 ± 0.11 | 3.29 ± 0.14 | 3.88 ± 0.17 | 3.54 ± 0.15 | 3.07 ± 0.22 | 5.16 ± 0.21 | 8.97 ± 0.33 | 3.58 ± 0.21 | 5.24 ± 0.38 | 5.643 ± 0.044 | 10.9 ± 0.2 |
| MSWQQFKHAWLIKFWAPIPAVIAAGILSTYYFGITGTFWAVTGEFTRWGGQLLQLFGVHAEEWGYFKIIHLEGSPLTRIDGMMILGMFGGCFAAALWANNVKLRMPRSRIRIMQAIIGGIIAGFGARLAMGCNLAAFFTGIPQFSLHAWFFAIATAIGSWFGARFTLLPIFRIPVKMQKVSAASPLTQKPDQARRRFRLGMLVFFGMLGWALLTAMNQPKLGLAMLFGVGFGLLIERAQICFTSAFRDMWITGRTHMAKAIIIGMAVSAIGIFSYVQLGVEPKIMWAGPNAVIGGLLFGFGIVLAGGCETGWMYRAVEGQVHYWWVGLGNVIGSTILAYYWDDFAPALATDWDKINLLKTFGPMGGLLVTYLLLFAALMLIIGWEKRFFRRAAPQTAKEIA |  | 1.86 | 2.16 |  | 3.67 |  | 4.44 ± 0.089 | 6.8 ± 1.4 | 3.69 |  | 2.95 |  |
| MSYPLFDKDEHWHKPEQAFLTDDHRTILRFAVEALMSGKGAVLVTLVEIRGGAARPLGAQMVVREDGRYCGFVSGGCVEAAAAFEALEMMGSGRDREIRYGEGSPWFDIVLPCGGGITLTLHKLRSAQPLLAVLNRLEQRKPVGLRYDPQAQSLVCLPTQTRTGWNLNGFEVGFRPCVRLMIYGRSLEAQATASLAAATGYDSHIFDLFPASASAQIDTDTAVILLCHDLNRELPVLQAAREAKPFYLGALGSYRTHTLRLQKLHELGWSREETTQIRAPVGIFPKARDAHTLALSVLAEVASVRLHQEEDSCLPPSS | 5.9 ± 0.33 |  |  |  |  |  |  |  |  |  |  |  |
| MTAELLVNVTPSETRVAYIDGGILQEIHIEREARRGIVGNIYKGRVSRVLPGMQAAFVDIGLDKAAFLHASDIMPHTECVAGEEQKQFTVRDISELVRQGQDLMVQVVKDPLGTKGARLTTDITLPSRYLVFMPGASHVGVSQRIESESERERLKKVVAEYCDEQGGFIIRTAAEGVGEAELASDAAYLKRVWTKVMERKKRPQTRYQLYGELALAQRVLRDFADAELDRIRVDSRLTYEALLEFTSEYIPEMTSKLEHYTGRQPIFDLFDVENEIQRALERKVELKSGGYLIIDQTEAMTTVDINTGAFVGHRNLDDTIFNTNIEATQAIARQLRLRNLGGIIIIDFIDMNNEDHRRRVLHSLEQALSKDRVKTSVNGFSALGLVEMTRKRTRESIEHVLCNECPTCHGRGTVKTVETVCYEIMREIVRVHHAYDSDRFLVYASPAVAEALKGEESHSLAEVEIFVGKQVKVQIEPLYNQEQFDVVMM [P0A9J0] | 3.85 ± 0.3 | 2.58 ± 0.087 | 3.04 ± 0.55 | 3.28 ± 0.38 | 2.62 ± 0.21 | 3.09 ± 0.69 | 4.36 ± 0.16 | 8.57 ± 0.57 | 2.6 ± 0.14 | 3.45 ± 0.073 | 5.69 ± 0.42 | 10.35 ± 0.087 |
| MTAINRILIVDDEDNVRRMLSTAFALQGFETHCANNGRTALHLFADIHPDVVLMDIRMPEMDGIKALKEMRSHETRTPVILMTAYAEVETAVEALRCGAFDYVIKPFDLDELNLIVQRALQLQSMKKEIRHLHQALSTSWQWGHILTNSPAMMDICKDTAKIALSQASVLISGESGTGKELIARAIHYNSRRAKGPFIKVNCAALPESLLESELFGHEKGAFTGAQTLRQGLFERANEGTLLLDEIGEMPLVLQAKLLRILQEREFERIGGHQTIKVDIRIIAATNRDLQAMVKEGTFREDLFYRLNVIHLILPPLRDRREDISLLANHFLQKFSSENQRDIIDIDPMAMSLLTAWSWPGNIRELSNVIERAVVMNSGPIIFSEDLPPQIRQPVCNAGEVKTAPVGERNLKEEIKRVEKRIIMEVLEQQEGNRTRTALMLGISRRALMYKLQEYGIDPADV | 5.23 ± 2.1 | 3.82 | 2.7 | 3.5 | 2.912 ± 0.0036 | 3.09 ± 0.26 | 5.56 ± 0.094 | 10.6 ± 2.5 | 3.16 |  | 4.99 ± 0.19 | 10.9 ± 1.7 |
| MTAPLTLLIVEDETPLAEMHAEYIRHIPGFSQILLAGNLAQARMMIERFKPGLILLDNYLPDGRGINLLHELVQAHYPGDVVFTTAASDMETVSEAVRCGVFDYLIKPIAYERLGQTLTRFRQRKHMLESIDSASQKQIDEMFNAYARGEPKDELPTGIDPLTLNAVRKLFKEPGVQHTAETVAQALTISRTTARRYLEYCASRHLIIAEIVHGKVGRPQRIYHSG [P0AEF4] | 4.85 | 3.389 ± 0.03 | 3.43 |  | 3.22 | 2.24 | 5.33 | 8.21 | 3 ± 0.62 | 5.34 ± 0.18 | 3.33 ± 0.5 | 7.63 ± 0.19 |
| MTATAQQLEYLKNSIKSIQDYPKPGILFRDVTSLLEDPKAYALSIDLLVERYKNAGITKVVGTEARGFLFGAPVALGLGVGFVPVRKPGKLPRETISETYDLEYGTDQLEIHVDAIKPGDKVLVVDDLLATGGTIEATVKLIRRLGGEVADAAFIINLFDLGGEQRLEKQGITSYSLVPFPGH |  | 4.03 ± 0.92 | 4.32 ± 0.47 | 4.33 ± 0.17 | 3.58 ± 0.46 |  | 4.57 ± 0.87 | 8.09 ± 0.39 | 5.06 ± 1 | 6.92 ± 0.095 | 5.1 ± 0.18 | 10.9 ± 0.8 |
| MTDKMQSLALAPVGNLDSYIRAANAWPMLSADEERALAEKLHYHGDLEAAKTLILSHLRFVVHIARNYAGYGLPQADLIQEGNIGLMKAVRRFNPEVGVRLVSFAVHWIKAEIHEYVLRNWRIVKVATTKAQRKLFFNLRKTKQRLGWFNQDEVEMVARELGVTSKDVREMESRMAAQDMTFDLSSDDDSDSQPMAPVLYLQDKSSNFADGIEDDNWEEQAANRLTDAMQGLDERSQDIIRARWLDEDNKSTLQELADRYGVSAERVRQLEKNAMKKLRAAIEA [P0AGB3] | 0.775 ± 0.044 |  |  |  |  |  |  |  |  |  |  | 0.858 |
